One may read the EC50 as the midpoint of the concentration-response curve. A higher EC50 goes with a need for much substance.

Test [1] has as its target T1, active-form HB-EGF protein (R&D Systems, Inc., 259-HE) (human, UniProt Q99075 63-148). As to the kind of experiment: cell-based or functional assay.
For test [2], the target named is proHB-EGF mutated at the protease cleavage site, expressed on Ba/F3 cells (HB-EGF_Ba/F3) (human) (UniProt Q99075). As to the kind of experiment: FACS, hybridoma culture supernatant on HB-EGF_Ba/F3 cells, EXP. 2 (no-mAb 6.9). For orientation: In flow cytometry, cells or beads pass a laser one at a time.
Test [3] shares this target. As to the kind of experiment: FACS, hybridoma culture supernatant on HB-EGF_Ba/F3 cells, EXP. 1 (no-mAb 19.1).
Test [4] concerns the target T2, HB-EGF expressed on the cell membrane (proHB-EGF), from pMCN_HB-EGF in DG44 and SKOV-3 cells or intrinsic in … (human, UniProt Q99075 20-208). Briefly: cell-based or functional assay.
The target in test [5] is T2, HB-EGF expressed on the cell membrane …. As to the kind of experiment: FACS on HB-EGF_DG44 cells, FITC-labeled anti-human IgG, Geo-Mean against concentration; the text says ED50, about.
The target in test [6] is T1, active-form HB-EGF protein (R&D …). As to the kind of experiment: ELISA on plate coated with 1 ug/mL HB-EGF protein (R&D 259-HE), AP-labeled anti-human IgG; the text says ED50, about.

T2 sequence (Q99075 20-208 limits assumed): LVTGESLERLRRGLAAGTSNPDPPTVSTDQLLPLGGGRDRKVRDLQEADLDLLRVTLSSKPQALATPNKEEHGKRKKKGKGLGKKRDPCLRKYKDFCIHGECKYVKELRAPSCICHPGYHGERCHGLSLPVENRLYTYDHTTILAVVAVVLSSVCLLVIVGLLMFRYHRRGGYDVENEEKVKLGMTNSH
T1 sequence (Q99075 63-148 limits assumed): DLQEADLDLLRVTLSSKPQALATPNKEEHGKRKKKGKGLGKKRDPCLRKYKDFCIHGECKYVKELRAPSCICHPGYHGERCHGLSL

B1: HC-15 antibody (antibody, V domains shown)
VH: EVQLQQSGPELVKPGASVKISCKASGYSFTGYYMHWVKQSPEKRLEWIGEINPRTGITTYNQKFKAKATLTVDKSSSTAYMQLKSLTSEDSAVYYCARVGSSGPFTYWGQGTLVTVSA
VL: DIVMTQSPSSLSVSAGDKVTMSCKSSQSLLNSRNQKNYLAWYQQKPWQPPKLLIYGASTRESGVPDRFTGSGSGTDFTLTISSVQAEDLAVYYCQNDYSYPFTFGTGTKLEIK
As for B1, the “EC50 of the growth-inhibiting effect on EGFR_Ba/F3 cells” value in test [1] is 3.8 nM. The FACS (GEO-mean) in test [2] was 234 GEO-mean; in test [3], 594 GEO-mean.

B2: saporin-labeled HC-15 antibody (HC-SAP) (antibody, V domains shown)
VH: B1 VH
VL: B1 VL
modifications: antibody labeled with an average of 2.4 saporin molecules; sites not stated
As for B2, in test [4], the “EC50 of cell death induction, ES-2 cells (WST-8)” value was determined as 0.09 nM; the “EC50 of cell death induction, MCAS cells (WST-8)” value amounted to 0.86 nM; the “EC50 of cell death induction, SKM-1 cells (WST-8)” value worked out at 0.02 nM; the “EC50 of cell death induction, THP-1 cells (WST-8)” value was 0.01 nM. The “EC50 of cell death induction, U937 cells (WST-8)” value in test [4] amounted to 0.33 nM.

B3: chHC15, human chimeric antibody derived from HC15 antibody (antibody, human IgG1, kappa, V domains shown)
VH: B1 VH
VL: DIVMTQSPSSLSVSAGDKVTMSCKSSQSLLNSRNQKNYLAWYQQKPWQPPKLLIYGASTRESGVPDRFTGSGSGTDFTLTISSVQAEDLAVYYCQNDYSYPFTFGTGTKLEIKR
On to B3, for which the EC50 was 3.3 nM in test [5] and 0.21 nM in test [6].

B4: chHE39, human chimeric antibody derived from HE39 antibody (antibody, V domains shown)
VH: EVQLQQSGPELMKPGASVKMSCKASGYIFTDYYMNWVKQSHGKSLEWIGRVNPNNGGTSYSQKFKDKATLTVDKSLNTAYMQVNSLTSEDSAVYYCARIYYGGSDWGQGTTLTVSS
VL: EIVMTQTPLSLSVTIGQPASISCKSSQSLLYTTGKTYLNWLQQRPGQAPKHLMYQVSKLVPGIPDRFSGSGSETDFTLKISRVEAEDLGVYYCLQGTYYPHTFGSGTKLEIKR
notes: Mouse HE39 variable regions linked to human IgG1 constant regions
In the case of B4, the concentration for a half-maximal effect (EC50) was 5.3 nM in test [5] and 0.42 nM in test [6].
